Reference: patent US20150284813A1

Target: bioluminescent capsule containing ALuc16 in its frame structure (DEVD sequence as cargo)
Assay: cell-based or functional assay

bioluminescent capsule containing ALuc16 in its frame structure (DEVD sequence as cargo), sequence (chain, as listed by the source, form in doubt): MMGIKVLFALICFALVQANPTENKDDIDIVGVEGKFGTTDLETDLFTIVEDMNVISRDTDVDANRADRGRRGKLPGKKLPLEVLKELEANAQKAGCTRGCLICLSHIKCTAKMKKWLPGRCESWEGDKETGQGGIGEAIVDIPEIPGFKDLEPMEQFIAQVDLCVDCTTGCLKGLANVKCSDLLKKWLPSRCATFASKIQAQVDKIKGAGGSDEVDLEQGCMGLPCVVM

luminescence intensity of COS-7 cells with versus without STS (two minutes), LAS-4000 image: 2 folds
Substance: Caspase-3 (enzyme)
